From patent US20160208004A1

Molecular target: human IL-17RA (human) (UniProt Q96F46)
Test: cell-based or functional assay

B1: 3.1404 (antibody, from a related filing, V domains shown)
VH: QVQLVQSGAEVKKPGASVKVSCKASGYTFTRYGISWVRQAPGQGLEWMGWISTYSGNTNYAQKLQGRVTMTTDTSTSTAYMELRSLRSDDTAVYYCARRQLYFDYWGQGTLVTVSS
VL: EIVMTQSPATLSVSPGERATLSCRASQSVSSNLAWFQQKPGQAPRPLIYDASTRATGVPARFSGSGSGTDFTLTISSLQSEDFAVYYCQQYDNWPLTFGGGTKVEIK
  % Inhib. of IL-5 production, TSLP treated human PBMC + IL-2 + IL-25, Expt. 1: 68%
  % Inhib. of IL-5 production, TSLP treated human PBMC + IL-2 + IL-25, Expt. 2: 76%
  % Inhibition of IL-5 production, TSLP treated human PBMC + IL-2 + IL-25; inhibitor 0.1 micrograms/mL: 12%
  % Inhibition of IL-5 production, TSLP treated human PBMC + IL-2 + IL-25; inhibitor 1.0 micrograms/mL: 54%

B2: 3.381 (antibody, from a related filing, V domains shown)
VH: QVQLVQSGAEVKKPGASVKVSCKASGYTFTRYGISWVRQAPGQGLEWMGWISAYSGNTNYAQKLQGRVTMTTDTSTSTAYMELRSLRSDDTAVYYCARRQLYFDYWGQGTLVTVSS
VL: EIVMTQSPATLSVSPGERVTLSCRASQSVSSNLAWFQQKPGQAPRPLIYDASTRAAGIPARFSGSGSGTDFTLTISSLQSEDFAVYYCQQYDNWPLTFGGGTKVEIK
  % Inhib. of IL-5 production, TSLP treated human PBMC + IL-2 + IL-25, Expt. 1: 90%
  % Inhib. of IL-5 production, TSLP treated human PBMC + IL-2 + IL-25, Expt. 2: 75%
  % Inhibition of IL-5 production, TSLP treated human PBMC + IL-2 + IL-25; inhibitor 10 micrograms/mL: 100%
